Assay results from PMC4912634.

Target: tubulin heterodimer (porcine/bovine brain tubulin) (not stated (porcine or bovine brain)) (UniProt Q6B856)
Test: ITC; PN2-3 proteins/peptides titrated into tubulin in the cell; 15 °C; 1xBRB80 (80 mM PIPES-K, 1 mM MgCl2, 1 mM EGTA, pH 6.8); one set of binding sites model; tubulin 9 μM for wild type and mutant PN2-3

human CPAP PN2-3 domain (aa 319-394) EE343RR, sequence (Q9HC77 other isoform, or with tags, fused parts or gaps): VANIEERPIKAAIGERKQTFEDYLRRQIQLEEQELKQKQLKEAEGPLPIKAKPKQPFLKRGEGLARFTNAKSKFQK
PN2-3N peptide (N-terminal helical region of PN2-3, aa 323-361 of CPAP), sequence (Q9HC77 323-361): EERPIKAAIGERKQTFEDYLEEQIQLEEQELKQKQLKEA
human CPAP PN2-3 domain (aa 319-394), wild type, sequence (Q9HC77 319-394): as the sequence (Q9HC77 other isoform, or with tags, fused parts or gaps) above, with R25E, R26E counted along it

Kd | Substance
68000 nM | PN2-3N peptide (N-terminal helical region of PN2-3, aa 323-361 of CPAP) (from UniProt Q9HC77 323-361)
194 nM | human CPAP PN2-3 domain (aa 319-394) EE343RR (from UniProt Q9HC77 319-394) (domain or fragment)
2800 nM | human CPAP PN2-3 domain (aa 319-394) F375A (from UniProt Q9HC77 319-394) (domain or fragment)
25.6 nM | human CPAP PN2-3 domain (aa 319-394), wild type (from UniProt Q9HC77 319-394) (domain or fragment)
